Results on 2 molecules are retold here after article PMC6755802 (The Journal of Biological Chemistry, 2019).

The target of test [1] is T1, IL-2/IL-2Rβ binary complex (Homo sapiens, UniProt P60568;P14784).
T1 construct: human IL-2, amino acids 1-133; human IL-2Rβ ectodomain, amino acids 1-214; also called IL-2 BC; IL-2 binary complex; source: baculovirus expression system, purified (nickel chromatography, SEC)
The test is described as follows: flow cytometry on cells; scFv displayed on yeast; 1 μM of the indicated biotinylated complex components in PBE buffer, 2 h at room temperature; detection with 50 nM SA-647. As to conditions: one partner purified. For orientation: Flow cytometry measures light scatter and fluorescence of single cells or particles in a stream.

The target in test [2] is T2, IL-2, biotinylated (for staining of yeast) (Homo sapiens, UniProt P60568, biotin (site not stated)).
T2 construct: human IL-2, amino acids 1-133; also called interleukin-2; the cytokine; source: baculovirus expression system, purified (nickel chromatography, SEC)
The test is described as above. As to conditions: one partner purified.

The target of test [3] is T3, IL-2Rβ ectodomain, biotinylated (for staining of yeast) (Homo sapiens, UniProt P14784, biotin (site not stated)).
T3 construct: human IL-2Rβ ectodomain, amino acids 1-214; also called the receptor; source: baculovirus expression system, purified (nickel chromatography, SEC)
The test is described as above. As to conditions: one partner purified.

For test [4], the target named is T4, Super-2/IL-2Rβ binary complex (human, UniProt P60568;P14784).
T4 construct: human IL-2Rβ ectodomain, amino acids 1-214; also called stabilized Super-2/IL-2Rβ binary complex; source: baculovirus expression system, purified (nickel chromatography, SEC)
T4 chain 1: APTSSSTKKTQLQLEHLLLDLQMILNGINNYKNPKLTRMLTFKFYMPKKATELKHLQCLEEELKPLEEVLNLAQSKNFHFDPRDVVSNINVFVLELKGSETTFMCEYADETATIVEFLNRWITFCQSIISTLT
T4 chain 2: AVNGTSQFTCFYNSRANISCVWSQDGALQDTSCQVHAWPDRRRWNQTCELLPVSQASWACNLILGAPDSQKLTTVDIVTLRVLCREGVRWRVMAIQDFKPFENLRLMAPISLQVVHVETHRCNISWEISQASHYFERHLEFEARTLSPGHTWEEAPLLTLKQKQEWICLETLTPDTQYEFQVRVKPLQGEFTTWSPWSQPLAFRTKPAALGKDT
Description: SPR; biotinylated scFv immobilised on Biacore SA chip at low density; analytes flowed 60 s; complexes pre-incubated 30 min at room temperature; 25 °C; HBS-P+ with 0.2% BSA; KD from equilibrium titration, 1:1 model; in Fig. 1D all proteins at 60 μM. As to conditions: both partners purified.

B1: affinity-matured IL-2 binary complex stapler scFv, yeast-displayed (scFv, V domains shown)
VH: QVQLQQSGPGLVKPSQTLSLTCAISGDSVSSNSATWNWIRQSPSRGLEWLGRTYYRSKWYDDYAVSVKSRITINPDTSKNQFSLQLNSVTPEDTAVYYCARATYGTYDYWGQGTLVTVSS
VL: NFMLTQPHSASESPGKTVTISCTGSRGSIASNYVQWYQQRPGSAPTTVIYEDNQRPSGVPDRFSGSIDSSSNSASLTISGLKTEDEADYYCQSYDQNYHAVFGGGTQLTVL
notes: as the scFv of m6 with changes in the VH and VL CDR3 regions; also called amIL-2B stapler; amIL-2BC stapler; source: site-directed mutagenic library of IL-2B stapler
Take B1: the binding result in test [1] is “binds”; in test [2] it was “no binding (tested: 1 μM)”; in test [3], “no binding (tested: 1 μM)”.

B2: affinity-matured IL-2 binary complex stapler scFv, recombinantly expressed (scFv, V domains shown)
VH: QVQLQQSGPGLVKPSQTLSLTCAISGDSVSSNSATWNWIRQSPSRGLEWLGRTYYRSKWYDDYAVSVKSRITINPDTSKNQFSLQLNSVTPEDTAVYYCARATYGTYDYWGQGTLVTVSS
VL: NFMLTQPHSASESPGKTVTISCTGSRGSIASNYVQWYQQRPGSAPTTVIYEDNQRPSGVPDRFSGSIDSSSNSASLTISGLKTEDEADYYCQSYDQNYHAVFGGGTQLTVL
notes: VH of amIL-2B stapler; as the VH of m8 with changes in CDR3; 15-amino acid (Gly4Ser)3 linker; VL of amIL-2B stapler; as the VL of m8 with changes in CDR3; Biotinylated for immobilisation in SPR; also called amIL-2B stapler; amIL-2BC stapler; source: baculovirus system (pAcGP67A), purified (nickel chromatography, SEC)
Molecule B2 displayed a Kd in test [4] of 15 nM.

The Kd is the concentration at which binding is half-saturated. The low end stands for a tighter complex, the high end for a looser complex.
